Laboratory results taken from article PMC6593408.

Tests used:
Experiment in all cases: EMSA
Conditions in all cases: EMSA: pKa-matched buffers (ethanolamine-CAPSO pH 9.6, Tris-acetate pH 8.0, bis-Tris-ACES pH 6.7), 155 mM NaCl, 5 nM DNA, 2.5-20 or 40 uM protein, 30 min room …
[1] = biological target: T1, 0100 (Csa1A) (Staphylococcus aureus USA300 LAC) (UniProt Q2FKG1)
T1 sequence: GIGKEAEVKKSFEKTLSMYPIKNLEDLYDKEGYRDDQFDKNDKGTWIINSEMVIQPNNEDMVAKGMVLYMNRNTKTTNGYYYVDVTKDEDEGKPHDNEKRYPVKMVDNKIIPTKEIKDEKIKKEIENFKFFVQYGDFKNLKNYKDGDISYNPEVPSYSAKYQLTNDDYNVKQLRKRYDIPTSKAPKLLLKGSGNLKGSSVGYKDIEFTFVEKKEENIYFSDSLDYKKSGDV

[2] = biological target: T2, CopL (0079) (Staphylococcus aureus USA300 LAC) (UniProt A0A0H2XFS1)
T2 sequence: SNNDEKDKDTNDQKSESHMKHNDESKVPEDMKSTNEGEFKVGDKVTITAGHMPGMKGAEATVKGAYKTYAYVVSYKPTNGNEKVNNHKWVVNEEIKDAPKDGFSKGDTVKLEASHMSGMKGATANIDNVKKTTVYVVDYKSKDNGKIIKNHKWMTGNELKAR

[3] = biological target: T3, DsbA (Staphylococcus aureus USA300 LAC) (UniProt A0A0H2XFS3)
T3 sequence: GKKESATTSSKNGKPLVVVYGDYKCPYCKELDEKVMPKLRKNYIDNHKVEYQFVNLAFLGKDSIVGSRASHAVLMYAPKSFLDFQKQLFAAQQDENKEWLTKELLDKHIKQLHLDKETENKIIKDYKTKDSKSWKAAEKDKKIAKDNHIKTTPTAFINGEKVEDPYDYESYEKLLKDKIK

Measured: binding

GTTCATTATGAAGTCCCTCCAAAAATCATTTGATAATATAGTTTACAGCTATAATTGTAAACGCTATCATAAAATGTAACAATATCTTTTTGAAAATTGTAGTCATATTTATGTATAATTAATGAAAATGTTTTTCAAAATCAATAGAAATGGAGTGAGTAAGGTGTATTACATCGCAATCGATATTGGAGGCACTCAAATTAAATCGGCAGTTATTGATAAGCAATTGAATATGTTTGACTATCAACAAATATCAACG (double strand) [259-bp nanA promoter probe]
binds: all assays above
